We go through three substances from article PMC4169075.

This experiment has as its target GABAA receptor β2 subunit, FLAG-tagged (β2^FLAG) (human) (UniProt P47870). In words: co-IP.
Substance “GABAA receptor γ2L(N79S) subunit, HA-tagged (γ2L(N79S)^HA)” gave an amount associated with β2^FLAG relative to wildtype γ2L^HA of 0.94. With “GABAA receptor γ2L(P83S) subunit, HA-tagged (γ2L(P83S)^HA)” the figure was 0.71. “GABAA receptor γ2L(R82Q) subunit, HA-tagged (γ2L(R82Q)^HA)”: the amount associated with β2^FLAG relative to wildtype γ2L^HA amounted to 0.47.
